Molecular target: horse CytC K87W (horse, UniProt P00004 1-105, K87W)
Assay: ITC

B1: full-length human Apaf-1 (residues 1–1248) (natural protein)
chain: MDAKARNCLLQHREALEKDIKTSYIMDHMISDGFLTISEEEKVRNEPTQQQRAAMLIKMILKKDNDSYVSFYNALLHEGYKDLAALLHDGIPVVSSSSGKDSVSGITSYVRTVLCEGGVPQRPVVFVTRKKLVNAIQQKLSKLKGEPGWVTIHGMAGCGKSVLAAEAVRDHSLLEGCFPGGVHWVSVGKQDKSGLLMKLQNLCTRLDQDESFSQRLPLNIEEAKDRLRILMLRKHPRSLLILDDVWDSWVLKAFDSQCQILLTTRDKSVTDSVMGPKYVVPVESSLGKEKGLEILSLFVNMKKADLPEQAHSIIKECKGSPLVVSLIGALLRDFPNRWEYYLKQLQNKQFKRIRKSSSYDYEALDEAMSISVEMLREDIKDYYTDLSILQKDVKVPTKVLCILWDMETEEVEDILQEFVNKSLLFCDRNGKSFRYYLHDLQVDFLTEKNCSQLQDLHKKIITQFQRYHQPHTLSPDQEDCMYWYNFLAYHMASAKMHKELCALMFSLDWIKAKTELVGPAHLIHEFVEYRHILDEKDCAVSENFQEFLSLNGHLLGRQPFPNIVQLGLCEPETSEVYQQAKLQAKQEVDNGMLYLEWINKKNITNLSRLVVRPHTDAVYHACFSEDGQRIASCGADKTLQVFKAETGEKLLEIKAHEDEVLCCAFSTDDRFIATCSVDKKVKIWNSMTGELVHTYDEHSEQVNCCHFTNSSHHLLLATGSSDCFLKLWDLNQKECRNTMFGHTNSVNHCRFSPDDKLLASCSADGTLKLWDATSANERKSINVKQFFLNLEDPQEDMEVIVKCCSWSADGARIMVAAKNKIFLFDIHTSGLLGEIHTGHHSTIQYCDFSPQNHLAVVALSQYCVELWNTDSRSKVADCRGHLSWVHGVMFSPDGSSFLTSSDDQTIRLWETKKVCKNSAVMLKQEVDVVFQENEVMVLAVDHIRRLQLINGRTGQIDYLTEAQVSCCCLSPHLQYIAFGDENGAIEILELVNNRIFQSRFQHKKTVWHIQFTADEKTLISSSDDAEIQVWNWQLDKCIFLRGHQETVKDFRLLKNSRLLSWSFDGTVKVWNIITGNKEKDFVCHQGTVLSCDISHDATKFSSTSADKTAKIWSFDLLLPLHELRGHNGCVRCSAFSVDSTLLATGDDNGEIRIWNVSNGELLHLCAPLSEEGAATHGGWVTDLCFSPDGKMLISAGGYIKWWNVVTGESSQTFYTNGTNLKKIHVSPDFKTYVTVDNLGILYILQTLE
Ka: 1.24e+06 M⁻¹
